Legend:
Test in all cases: ELISA
Human FcR1 (human) = Human FcR1 (human) (UniProt P12314)
Human FcRIIA[H] (human) = Human FcRIIA[H] (human) (UniProt P12318)
Human FcRIIA[R] = target: Human FcRIIA[R]
Human FcRIIB = target: Human FcRIIB
Human FcRIII (human) = target: Human FcRIII (human)
Human FcRn = target: Human FcRn
Mouse FcRIIB = target: Mouse FcRIIB
Mouse FcRIV = target: Mouse FcRIV
Mouse FcRI = target: Mouse FcRI

Sequence of Human FcRIIA[H] (human) (P12318 34-217): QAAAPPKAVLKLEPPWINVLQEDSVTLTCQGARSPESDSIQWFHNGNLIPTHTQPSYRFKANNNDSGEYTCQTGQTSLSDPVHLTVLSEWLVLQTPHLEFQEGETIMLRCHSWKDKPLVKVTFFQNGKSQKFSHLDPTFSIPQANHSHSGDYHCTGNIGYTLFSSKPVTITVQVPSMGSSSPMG
Sequence of Human FcRIII (human) (P08637 17-208): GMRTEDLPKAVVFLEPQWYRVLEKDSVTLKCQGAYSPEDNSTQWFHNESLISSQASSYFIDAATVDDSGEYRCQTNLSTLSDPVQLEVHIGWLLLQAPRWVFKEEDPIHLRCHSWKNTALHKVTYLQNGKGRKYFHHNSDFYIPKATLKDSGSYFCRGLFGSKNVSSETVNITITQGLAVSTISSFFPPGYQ
Sequence of Human FcR1 (human) (P12314 16-292): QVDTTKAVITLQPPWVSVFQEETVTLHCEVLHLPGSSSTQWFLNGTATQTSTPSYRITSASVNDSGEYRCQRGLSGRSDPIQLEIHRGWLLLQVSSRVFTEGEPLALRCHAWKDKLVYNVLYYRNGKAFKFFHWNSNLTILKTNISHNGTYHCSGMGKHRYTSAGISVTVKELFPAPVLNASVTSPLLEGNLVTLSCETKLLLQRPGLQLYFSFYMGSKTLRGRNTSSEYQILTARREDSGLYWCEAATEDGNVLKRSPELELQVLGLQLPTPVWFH
Sequence of Mouse FcRIV (A0A0B4J1G0 21-203): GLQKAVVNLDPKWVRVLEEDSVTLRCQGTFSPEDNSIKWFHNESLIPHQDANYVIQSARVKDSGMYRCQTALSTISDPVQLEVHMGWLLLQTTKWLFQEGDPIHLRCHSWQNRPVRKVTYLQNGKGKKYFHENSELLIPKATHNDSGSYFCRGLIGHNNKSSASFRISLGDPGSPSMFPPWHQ

Kd (Human FcR1 (human)): 0.161 nM
Kd (Human FcRIIA[H] (human)): 333 nM
Kd (Human FcRIIA[R]): 200 nM
Kd (Human FcRIIB): 876 nM
Kd (Human FcRIII (human)): 1180 nM
Kd (Human FcRn): 14 nM
Kd (Mouse FcRIIB): 375 nM
Kd (Mouse FcRIV): 6.52 nM
Kd (Mouse FcRI): 1.33 nM
Substance: IgG1
